Experiments:
[1] = target: 48d.cl IC, fusion version (gpCore + 48d heavy chain fusion, Fab-Fab-crosslinked K126C) (HIV-1 strain BG505); experiment: native gel or EMSA
[2] = target: 48d.cl IC, 3 plasmid version (Fab-Fab-crosslinked, K126C) (HIV-1 strain BG505); experiment: native gel or EMSA

Substance: wtA32 (antibody)
- stoichiometry N [1]: 2
- stoichiometry N [2]: 2

Substance: wtVRC01 (antibody)
- stoichiometry N [1]: 1
- stoichiometry N [2]: 1

Reference: paper PMC12846365
